Laboratory results from US20210087239A1 (ACADEMIA SINICA, published 2021).
Changes are numbered by the printed parent chain. Names and notes keep the numbering of the source.

T1: β-catenin (human, UniProt P35222 2-781)
T1 construct: Endogenous protein co-immunoprecipitated from cell lysates or nuclear fractions; also called nuclear β-catenin
T1 sequence (looked up): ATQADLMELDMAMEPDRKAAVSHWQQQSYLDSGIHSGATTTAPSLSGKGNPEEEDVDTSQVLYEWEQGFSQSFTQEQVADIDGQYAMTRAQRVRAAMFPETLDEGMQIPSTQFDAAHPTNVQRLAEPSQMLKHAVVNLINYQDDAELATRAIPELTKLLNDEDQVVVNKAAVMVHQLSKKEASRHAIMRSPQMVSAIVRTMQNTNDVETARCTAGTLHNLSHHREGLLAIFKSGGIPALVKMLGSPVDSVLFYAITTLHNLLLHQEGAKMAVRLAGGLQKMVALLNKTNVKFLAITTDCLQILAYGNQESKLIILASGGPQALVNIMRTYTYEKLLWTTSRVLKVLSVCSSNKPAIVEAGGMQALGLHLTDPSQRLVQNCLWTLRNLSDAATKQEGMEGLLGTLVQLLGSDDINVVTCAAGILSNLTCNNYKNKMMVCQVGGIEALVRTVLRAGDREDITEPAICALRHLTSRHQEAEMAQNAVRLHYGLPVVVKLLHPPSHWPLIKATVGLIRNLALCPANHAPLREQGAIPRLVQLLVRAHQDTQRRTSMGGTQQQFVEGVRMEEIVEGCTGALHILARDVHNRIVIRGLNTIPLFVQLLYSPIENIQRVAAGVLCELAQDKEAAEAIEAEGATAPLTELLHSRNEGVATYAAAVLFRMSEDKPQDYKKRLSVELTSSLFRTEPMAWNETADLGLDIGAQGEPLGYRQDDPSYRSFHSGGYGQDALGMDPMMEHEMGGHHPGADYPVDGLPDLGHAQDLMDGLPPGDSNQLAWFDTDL

T2: HA-tagged PSPC1 (wild type) (human, UniProt Q8WXF1 1-523)
T2 construct: Full-length PSPC1 cDNA cloned into pcDNA3.0-HA and expressed in 293T or SK-hep1 cells; also called HA-PSPC1; wild-type PSPC1; not shown: HA tag from the pcDNA3.0-HA plasmid
T2 sequence: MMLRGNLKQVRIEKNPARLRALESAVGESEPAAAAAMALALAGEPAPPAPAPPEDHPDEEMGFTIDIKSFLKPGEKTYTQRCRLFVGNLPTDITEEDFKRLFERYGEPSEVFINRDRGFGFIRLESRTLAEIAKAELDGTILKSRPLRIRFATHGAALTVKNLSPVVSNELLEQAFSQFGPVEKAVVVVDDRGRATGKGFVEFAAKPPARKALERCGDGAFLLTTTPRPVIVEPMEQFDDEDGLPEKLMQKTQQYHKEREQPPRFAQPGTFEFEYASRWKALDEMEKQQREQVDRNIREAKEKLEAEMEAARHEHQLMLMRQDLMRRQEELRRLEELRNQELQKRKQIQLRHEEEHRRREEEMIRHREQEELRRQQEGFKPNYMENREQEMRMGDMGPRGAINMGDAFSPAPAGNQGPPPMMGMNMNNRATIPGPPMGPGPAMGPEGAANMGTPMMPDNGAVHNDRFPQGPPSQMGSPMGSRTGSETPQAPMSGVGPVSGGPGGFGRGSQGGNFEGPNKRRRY

B1: Paraspeckle component 1 (PSPC1), human (other)
chain: T2 sequence
notes: Endogenous PSPC1 of human HCC cell lines (Huh-7, Mahlavu); also called endogenous PSPC1; nuclear PSPC1
B2: PSPC1-Y523F mutant (HA-tagged) (other)
chain: T2 sequence with Y523F
notes: All PSPC1 mutants were generated in a pCDNA3.0-HA plasmid; also called Y523F PSPC1 mutant; HA-tagged Y523F mutant; not shown: HA tag from the pCDNA3.0-HA plasmid
B3: EGFP-conjugated PSPC1-CT131 (PSPC1 C-terminal 131 fragment) (other)
chain: MGDMGPRGAINMGDAFSPAPAGNQGPPPMMGMNMNNRATIPGPPMGPGPAMGPEGAANMGTPMMPDNGAVHNDRFPQGPPSQMGSPMGSRTGSETPQAPMSGVGPVSGGPGGFGRGSQGGNFEGPNKRRRY
notes: PSPC1-CT131 cloned into pEGFP-C2 and expressed in Mahlavu cells; also called PSPC1-CT131-EGFP; EGFP-PSPC1-CT; not shown: EGFP from the pEGFP-C2 plasmid
B4: Flag-tagged PTK6 kinase-dead mutant (PTK6-K219M) (enzyme)
chain: not shown
notes: also called PTK6-KM; KM mutant; not shown: Flag tag

Key:
β-catenin [1] = target: T1, β-catenin; experiment: IP/western blotting, Huh-7 cells with HGF stimulation (FIG. 3b)
Procedure: (§1) (a-b) Huh-7 treated with or without HGF (10 ng/ml) for EMT induction. Under HGF stimulation, nuclear PSPC1 interacted with β-catenin and loss of PTK6 interaction owing to an increase of cytosolic PTK6 accumulation in HGF-induced EMT model in IP/westem blotting analysis. Arrowhead is the IgG heavy chain. Arrows are indicated proteins after IB. (c) Nuclear (SP1 as marker) and cytosolic (α-tubulin as marker) localization of PSPC1/PTK6 interaction and β-catenin analyzed by western blotting analysis in SK-hep1 cells. PSPC1-Y523F mutant further enhanced nuclear localization of β-catenin. (d) Nuclear (SP1 as marker) localization of PSPC1/PTK6 interaction and βcatenin analyzed by IP/western blotting analysis in SK-hep1 cells. Y523F PSPC1 mutant further enhanced nuclear interaction with β-catenin but not PTK6. […] Promoter activation (fold) was calculated relative to vector alone (Mock) in cells. […] (h) Secreted cytokines Wnt1 and Wnt3a protein expression measured by ELISA assays of conditional medium after transfection of divergent PSPC1/PTK6 expression constructs in SK-hep1 cells.

β-catenin [2] = target: T1, β-catenin; experiment: IP/western blotting of nuclear fraction, SK-hep1 cells (FIG. 3d)
Procedure: as §1

[3] = target: B1; experiment: conclusion drawn from expression and fractionation experiments in Mahlavu cells; no direct binding assay described
[4] = target: T2, HA-tagged PSPC1 (wild type); experiment: subcellular fractionation and western blotting, SK-hep1 cells (FIG. 1e)

Binder: B1
binding result (β-catenin [1]): binds

Binder: B2
binding result (β-catenin [2]): binds

Binder: B3
binding result [3]: binds

Binder: B4
binding result [4]: no binding
